Reference: the supplement of paper PMC12764529
± gives the half width of the 95% confidence interval.

Experiments:
[1] = folding stability dG unfold from trypsin proteolysis; higher = more stable
How it was run: (§1)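 Designed mini-proteins (under 80 residues, no cysteine) in a PA-tagged cDNA display construct were digested with trypsin and chymotrypsin. Each protease was used at 11 concentrations (threefold dilutions) plus a no-protease condition, followed by sequencing. K50 was inferred by Bayesian fitting of sequencing counts, and unfolding free energy was derived against a sequence-predicted unfolded-state K50 and a shared folded-state K50, per protease or combined. Only designs with AlphaFold2 dimer inter-PAE above 15 were kept.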

[2] = folding stability dG unfold from chymotrypsin proteolysis; higher = more stable
How it was run: as §1

[3] = folding stability dG unfold (combined trypsin and chymotrypsin); higher = more stable
How it was run: as §1

| Sequence | folding stability dG unfold [1] | folding stability dG unfold [2] | folding stability dG unfold [3] |
| --- | --- | --- | --- |
| SAGGSAGGSAGGMYRIKVTTKDGRERVIEVKPGEEITLEELRKAGLSEEEIERVEIEEVSAGGSAGGSAGGS [r10_565_TrROS_Hall] | 1.89 ± 0.076 kcal/mol | 1.85 ± 0.051 kcal/mol | 1.84 ± 0.092 kcal/mol |
| SAGGSAGGSAGGMYRVEIETKGNKKVYIFPNLSPEELAKFLEDPKVVSYKVEKLSPEELESAGGSAGGSAGG [r7_502_JUSTAS] | 2.04 ± 0.077 kcal/mol | 2.34 ± 0.094 kcal/mol | 2.27 ± 0.08 kcal/mol |
| SAGGSAGGSAGGNEEDIEKAVKEAKEKGENAEVKVTLPNGKEETVYIEVNVKEPSEKLKSAGGSAGGSAGGS [r10_573_JUSTAS] | -1.05 ± 0.47 kcal/mol | -1.04 ± 0.22 kcal/mol | < -1 kcal/mol |
| SAGGSAGGSAGGNFKITEPVEEYPNPNGNPIKVFTFKNPDDGPEFTFIFMPNGNWQFIPSAGGSAGGSAGGS [r10_1123_TrROS] | 0.674 ± 0.09 kcal/mol | 0.797 ± 0.14 kcal/mol | 0.77 ± 0.12 kcal/mol |
| SAGGSAGGSAGGNPGGKRQWVMMEFPIPPGKKIELPPNFNVSIFRDNDRLWLMITVDAVKSAGGSAGGSAGG [r7_584_TrROS] | 1.7 ± 0.07 kcal/mol | 1.88 ± 0.06 kcal/mol | 1.9 ± 0.11 kcal/mol |
| SAGGSAGGSAGGNVITVFIPNYQIITIHLSPEPGRIPIEVYPPNGKKEEWPIPDIKELIQSAGGSAGGSAGG [r7_769_TrROS] | 1.6 ± 0.13 kcal/mol | -0.306 ± 0.14 kcal/mol | 1.01 ± 0.13 kcal/mol |
| SAGGSAGGSAGGNVRLTVTLDENGRLRVTAEVEVTNENGEKKTYRLTLTLKLKPGQTLTSAGGSAGGSAGGS [r10_763_TrROS_Hall] | 2.9 ± 0.054 kcal/mol | 3.863 ± 0.024 kcal/mol | 3.55 ± 0.13 kcal/mol |
| SAGGSAGGSAGGNVRNLDISLDPEEGTIKIKATLPENGQTWEITIPVQIPLPPPPPGDNSAGGSAGGSAGGS [r10_331_TrROS] | 0.49 ± 0.1 kcal/mol | 0.502 ± 0.12 kcal/mol | 0.424 ± 0.29 kcal/mol |
| SAGGSAGGSAGGNWVMIEFNFPPGKKLKIEIPNGRDIQRHRDPDNGTLWFMIPPEAAEDFSAGGSAGGSAGG [r7_155_TrROS] | 0.649 ± 0.11 kcal/mol | 0.509 ± 0.26 kcal/mol | 0.636 ± 0.27 kcal/mol |
| SAGGSAGGSAGGNYFMMVVLEIRLPPELKGMSPEEWLKKNGYEVTEIEIKGIYPFPPPDGSAGGSAGGSAGG [r7_62_TrROS] | 2.02 ± 0.12 kcal/mol | 3.31 ± 0.062 kcal/mol | 2.9 ± 0.1 kcal/mol |
| SAGGSAGGSAGGPANLNDEPVLLIPVSSELLKLIPAEKLVELAAKLASPNVKRIYVLAPESAGGSAGGSAGG [r7_487_TrMRF] | 0.12 ± 0.11 kcal/mol | 0.58 ± 0.13 kcal/mol | 0.424 ± 0.088 kcal/mol |
| SAGGSAGGSAGGPEEPEKLTLRVTLTFYNPETQEPVEEVEVEITLTAEDLKEGKITITPSAGGSAGGSAGGS [r10_672_TrROS_Hall] | 1.54 ± 0.043 kcal/mol | 2.85 ± 0.07 kcal/mol | 2.32 ± 0.13 kcal/mol |
| SAGGSAGGSAGGPEIELLEDVKPGEFVVIKVKLKDADGNEVTATFVFYNGEWYLTKIEPSAGGSAGGSAGGS [r10_288_TrROS_Hall] | 2.92 ± 0.14 kcal/mol | 4.73 ± 0.063 kcal/mol | 4.54 ± 0.2 kcal/mol |
| SAGGSAGGSAGGPEVERFRIPGDNVLVEVVRLEDERIARITFPDGSQLTVPLPPGWEAFSAGGSAGGSAGGS [r10_976_TrMRF] | 0.853 ± 0.031 kcal/mol | 0.851 ± 0.13 kcal/mol | 0.948 ± 0.097 kcal/mol |
| SAGGSAGGSAGGPEVTLRLRLEVEVRVVVLKDGKLEEKTFRFELEVEVRFEPGMSLEELSAGGSAGGSAGGS [r10_633_TrROS_Hall] | 3.23 ± 0.15 kcal/mol | 4.09 ± 0.086 kcal/mol | 3.91 ± 0.075 kcal/mol |
| SAGGSAGGSAGGPILKITLELSPEEIEELAKALGLKVKKVEKEKNKDGKLRVTIYIELKSAGGSAGGSAGGS [r10_999_TrROS_Hall] | 2.12 ± 0.085 kcal/mol | 3.24 ± 0.057 kcal/mol | 2.81 ± 0.078 kcal/mol |
| SAGGSAGGSAGGPKTVRIVEYDPETQRVVIELEDGSKVVIEVPPGMSVEELKGKTLTVEPSAGGSAGGSAGG [r7_296_TrROS_Hall] | 1.79 ± 0.051 kcal/mol | 0.569 ± 0.1 kcal/mol | 1.14 ± 0.17 kcal/mol |
| SAGGSAGGSAGGPKVEIVEVTVEGDKVTIRVKNEETGEWVTLEVTLKDLPKVTFVLKPKSAGGSAGGSAGGS [r10_655_TrROS_Hall] | 1.17 ± 0.032 kcal/mol | 1.16 ± 0.19 kcal/mol | 1.19 ± 0.11 kcal/mol |

| Sequence | folding stability dG unfold [1] | folding stability dG unfold [2] | folding stability dG unfold [3] |
| --- | --- | --- | --- |
| SAGGSAGGSAGGPKVFKFKDKIIVIYPNKKPNEEVKVVVKNPKTGKKEEFKIKIPKELLKSAGGSAGGSAGG [r7_834_TrMRF] | 0.512 ± 0.079 kcal/mol | 1.11 ± 0.13 kcal/mol | 0.847 ± 0.11 kcal/mol |
| SAGGSAGGSAGGPLIVFERNADGTLTAVAVDEETGEVTVTRVTLKDGKLTVETETLPLDESAGGSAGGSAGG [r7_28_TrROS_Hall] | 1.49 ± 0.048 kcal/mol | 1.82 ± 0.017 kcal/mol | 1.65 ± 0.042 kcal/mol |
| SAGGSAGGSAGGPNHYVMATETIEFEFEIRTRNEDGKPQEIKIKFTLTVIRMFPLPPGDPSAGGSAGGSAGG [r7_926_TrROS] | 3.36 ± 0.42 kcal/mol | 5.03 ± 0.26 kcal/mol | 4.73 ± 0.25 kcal/mol |
| SAGGSAGGSAGGPNNKPKPKQVTFDIEIEDIEIDPEHGLISIEIRFPDGGKEITARIPISAGGSAGGSAGGS [r10_427_TrROS] | 0.14 ± 0.059 kcal/mol | 0.27 ± 0.11 kcal/mol | 0.276 ± 0.16 kcal/mol |
| SAGGSAGGSAGGPPDLVKVRFIKVSVKLKEVKENPNGEKEMKLEMKIEEVEVTVRKDDLSAGGSAGGSAGGS [r10_524_TrROS_Hall] | 2.61 ± 0.21 kcal/mol | 2.71 ± 0.12 kcal/mol | 2.71 ± 0.15 kcal/mol |
| SAGGSAGGSAGGPPVTLLVVVRNEDGSLYLVRVEFDLETNEVKVEVFTLDDLKNLPEELSAGGSAGGSAGGS [r10_1077_TrROS_Hall] | 2.14 ± 0.14 kcal/mol | 3.66 ± 0.075 kcal/mol | 3.26 ± 0.25 kcal/mol |
| SAGGSAGGSAGGPTLELEITLPDGFKLRVTFDPEKGLRVELVEPVPAPPPKVEYRSLEDLSAGGSAGGSAGG [r11_188_TrROS_Hall] | 0.552 ± 0.13 kcal/mol | 1.62 ± 0.11 kcal/mol | 1.37 ± 0.18 kcal/mol |
| SAGGSAGGSAGGPVFTPVGAGDEDTVTTETLPDGSPVLRYTVPGTGVVEVALPDGTLLAESAGGSAGGSAGG [r11_601_JUSTAS] | -0.722 ± 0.073 kcal/mol | -1.66 ± 0.79 kcal/mol | -0.883 ± 0.22 kcal/mol |
| SAGGSAGGSAGGPYWRVKIEWMDPNGKKKEHTFTFPPGWPLEEIAEELKPNGYKIEVEPLSAGGSAGGSAGG [r7_226_TrROS] | 0.962 ± 0.044 kcal/mol | 1.7 ± 0.1 kcal/mol | 1.46 ± 0.085 kcal/mol |
| SAGGSAGGSAGGQTIVIDSRLLRTALENGDLEKLKALVEEAGYNPENAKIYLITPEELKESAGGSAGGSAGG [r7_3_TrMRF] | -0.133 ± 0.1 kcal/mol | 0.741 ± 0.11 kcal/mol | 0.464 ± 0.055 kcal/mol |
| SAGGSAGGSAGGRFEVLGVEPLPGNWVRVRVRYPGLGREATFLVRVSSLPLPPVDLDRFDSAGGSAGGSAGG [r11_986_TrMRF] | 1.82 ± 0.037 kcal/mol | 3.11 ± 0.046 kcal/mol | 2.71 ± 0.083 kcal/mol |
| SAGGSAGGSAGGSAGRLVKETKTTSYIFTFKKPTGEPISKKTSFVTSSLILLSDPSKISSAGGSAGGSAGGS [r4_450_JUSTAS] | 4.18 ± 0.37 kcal/mol | 4.6 ± 0.39 kcal/mol | 4.6 ± 0.44 kcal/mol |
| SAGGSAGGSAGGSAKIDLPFPAEITEIRPRPDGSVEIRLSFPTYTVTAIIPPNGIKIYGSAGGSAGGSAGGS [r4_280_TrMRF] | 0.855 ± 0.017 kcal/mol | -0.0211 ± 0.11 kcal/mol | 0.487 ± 0.065 kcal/mol |
| SAGGSAGGSAGGSAPPNLIIFIHVEIKIKEPKFDPGNGKPEYEIEITDIPIQIMPPDDLSAGGSAGGSAGGS [r4_417_TrROS] | 2.15 ± 0.16 kcal/mol | 2.39 ± 0.088 kcal/mol | 2.26 ± 0.11 kcal/mol |
| SAGGSAGGSAGGSAPYPNTVVPTPLLSSVVTETTVEFFPDGTVVPVSTTTTVVLVYRLLSAGGSAGGSAGGS [r4_288_JUSTAS] | 3.54 ± 0.13 kcal/mol | 4.75 ± 0.12 kcal/mol | 4.53 ± 0.15 kcal/mol |
| SAGGSAGGSAGGSDKGQPRVEIPMPFFMPNPNYVIRITMEIDLDPNGQIREIDVEVYKFSAGGSAGGSAGGS [r4_75_TrROS] | 3.21 ± 0.096 kcal/mol | 4.67 ± 0.1 kcal/mol | 4.08 ± 0.14 kcal/mol |
| SAGGSAGGSAGGSDVKIEVERGPNGYYTVTIELNGKPKIIPFPPGRPPEDAKDEIKDLLSAGGSAGGSAGGS [r4_7_TrROS] | 0.554 ± 0.058 kcal/mol | -0.279 ± 0.13 kcal/mol | 0.335 ± 0.12 kcal/mol |
| SAGGSAGGSAGGSDYIMFRIPAPPGEKIEIPIPNGWEVEINPQPHNGRWYFMIKIPEDASAGGSAGGSAGGS [r4_360_TrROS] | 1.05 ± 0.085 kcal/mol | 1.09 ± 0.11 kcal/mol | 1.13 ± 0.12 kcal/mol |
